Reference: US20250051437A1
Blank lines part the entries; values can stand above or below the binder they belong to.

Experiments:
[1] = biological target: monkey (crab-eating macaque) CDH17 fused to moxGFP, overexpressed on HEK293T cells (monkey (crab-eating macaque)); experiment: flow cytometry (BD C6), 1 µg antibody on HEK293T Macaque CDH17 moxGFP cells, labelled anti-human IgG Fc secondary antibody; same antibody on HEK293T Parental: 817.99
[2] = biological target: monkey (crab-eating macaque) CDH17 fused to moxGFP, overexpressed on HEK293T cells (monkey (crab-eating macaque)); experiment: KinExA, cell-based, HEK293T monkey CDH17mGFP mass population
[3] = biological target: monkey (crab-eating macaque) CDH17 fused to moxGFP, overexpressed on HEK293T cells (monkey (crab-eating macaque)); experiment: KinExA, cell-based, HEK293T overexpressing monkey CDH17 fusion (FIG. 16)
[4] = biological target: monkey (crab-eating macaque) CDH17 fused to moxGFP, overexpressed on HEK293T cells (monkey (crab-eating macaque)); experiment: flow cytometry on HEK293T monkey CDH17mGFP mass population, 20 µg/ml
[5] = biological target: monkey (crab-eating macaque) CDH17 fused to moxGFP, overexpressed on HEK293T cells (monkey (crab-eating macaque)); experiment: flow cytometry (BD C6), 1 µg antibody on HEK293T Macaque CDH17 moxGFP cells, labelled anti-human IgG Fc secondary antibody; same antibody on HEK293T Parental: 600.46
[6] = biological target: monkey (crab-eating macaque) CDH17 fused to moxGFP, overexpressed on HEK293T cells (monkey (crab-eating macaque)); experiment: flow cytometry (BD C6), 1 µg antibody on HEK293T Macaque CDH17 moxGFP cells, labelled anti-human IgG Fc secondary antibody; same antibody on HEK293T Parental: 593.57

FL4-H [1]: 182000
Kd [2]: 0.946 nM
Kd [3]: < 1 nM
Cross Reactivity by Flow [4]: 29800
B1: humanized anti-CDH17 antibody 07-0653-h43 (antibody, human IgG1, V domains shown)
VH: QVQLVQSGAEVKKPGASVKVSCKASGYTFTDYYMNWVRQAPGQGLEWMGVIYPYSGGIGYAQKFQGRVTMTVDKSTSTAYMELSSLRSEDTAVYYCARGRGDYFGLFDFWGQGTTVTVSS
VL: DIQLTQSPSSLSASVGDRVTITCRATSSLSYIHWYQQKPGKAPKPLIYEISKLASGVPSRFSGSGSGTDYTLTISSLQPEDFATYYCQQWNYPFTFGQGTKLEIK

Kd [2]: 0.336 nM
Kd [3]: < 1 nM
FL4-H [5]: 159000
Cross Reactivity by Flow [4]: 41300
B2: humanized anti-CDH17 antibody 07-0663-h7 (antibody, human IgG1, kappa, V domains shown)
VH: QVQLVQSGAEVKKPGSSVKISCKVSGYTFTDHTIHWMRQAPGQGLEWIGYIFPRDDIVVYAQKFQGRATLTADKSTSTAYMELSSLRSEDTAVYYCARPPYYYSRNFYFDYWGQGTTLTVSS
VL: DIQMTQSPSSLSASVGDRVTITCRVSSIISSSKLHWYQQKPGKAPKPLIYGTSTLASGVPSRFSGSGSGTDYTLTISSLQPEDFATYYCQQWSNYPFTFGQGTKLEIKR

FL4-H [6]: 145000
Kd [2]: 0.657 nM
Kd [3]: < 1 nM
Cross Reactivity by Flow [4]: 16900
B3: humanized anti-CDH17 antibody 07-0646-h7 (antibody, human IgG1, V domains shown)
VH: QVQLVQSGAEVKKPGASVKMSCKASGYTFTSYNMHWVRQAPGQGLEWIGAIYPGNGDTSYAQKFQGRATLTVDTSTSTAYMELSSLRSEDTAVYYCARGRGRYFEYWGQGTTLTVSS
VL: DIQLTQSPSSLSASVGDRVTMTCRASSSVSSSYLHWYQQKPGKAPKLLIYSTSNLASGVPSRFSGSGSGTDYTLTISSVQPEDFATYYCQQYDSSPSTFGQGTKLEIK
